Patent US12194082B2, “Compositions and methods for treatment of homocystinuria” (THE REGENTS OF THE UNIVERSITY OF COLORADO, priority 2016, dated 2025)
Read-outs that look alike come from different tables or passages of the source.

Assays:
[1] = for Peak @ SS, predicted / Trough @ SS, predicted: 80% bioavailability assumed; for Extrapolated concentration: hypothetical single dose curve
Procedure: Using a dose of 5 mg/kg and correcting for the difference in body surface area between humans (70 kg) and mice (0.025 kg), a dose of 0.4 mg/kg was estimated to be the efficacious human equivalent dose (HED). […] Since the substrate for 20NHS PEG-htCBS C15S activity (Hcy and serine) was the same across species and the site of action was the blood pool itself, these parameters provide an accurate estimate of the target human plasma levels required for efficacy in a 20NHS PEG-htCBS clinical trial.
Interspecies comparisons were conducted based upon body surface area scaling assuming an 80% bioavialability in all 3 species (mouse, rat and monkey) to determine if a linear correlation existed between the log body weight and the log of various PK parameters (AUC/dose, Cmax per dose and T1/2). […] Linear correlations allow predictions of the clinical dose and dosing regimen from the preclinical data to be made.
By extrapolating to the log body weight for humans (70 kg) for each parameter, the AUC/dose, Cmax/dose, and T1/2 was calculated for human subjects.
The human predicted efficacious dose was calculated from the efficacious dose in mice (5 mg/kg) by allometric scaling to be 0.4 mg/kg in a 70 kg human.

[2] = tested on: homocysteine, cystathionine, and cysteine; assay: Long-term administration of PEGylated htCBS C15S conjugates in HO mice: plasma metabolites; assay type: in vivo; conditions: 7.5 mg/kg/day SC, 5 daily injections per bout
Procedure: In one set of experiments, htCBS C15S PEGylated with either ME-200MA0B, ME-200GS, GL4-400MA, or ME-400MA was evaluated. Six groups of HO mice were used to conduct these studies: two groups received 200MA0B PEG-htCBS C15S (Groups 1 and 3), one group received 20NHS PEG-htCBS C15S (Group 4), one group received GL4-400MA PEG-htCBS C15S (Group 5), and two groups received 400MA PEG-htCBS C15S (Group 6 and 7). Both male and female HO mice were used (total n=6 to 8 mice per group) in these studies.
For Group 1, the mice received 2 bouts of 5 daily subcutaneous injections of 200MA0B PEG-htCBS C15S on days 1, 2, 3, 4, and 5 (week 1) and days 15, 16, 17, 18, and 19 (week 3). The dose for this experiment was 5 mg/kg/day. A saline control group (Group 2) was included in this experiment. All other groups received 3 bouts of 5 daily subcutaneous injections on days 1, 2, 3, 4, and 5 (week 1); days 15, 16, 17, 18, and 19 (week 3); and days 29, 30, 31, 32 and 33 (week 5). The dose for these experiments was 7.5 mg/kg/day.
In a separate set of experiments, htCBS C15S PEGylated with ME-200MA0B or ME050GS was evaluated. Two groups of male and female HO mice (1M/5F) received 3 bouts of 5 daily subcutaneous injections of either 200MA0B PEG-htCBS C15S (Group 8) or 050GS PEG-htCBS (Group 9) on days 1, 2, 3, 4, and 5 (week 1); days 15, 16, 17, 18, and 19 (week 3); and days 29, 30, 31, 32 and 33 (week 5). The dose was 7.5 mg/kg/day.
In all sets of experiments, each 5-day dosing cycle was followed by a 10-day “washout period”. Blood was sampled using a submandibular lancet on Monday, Wednesday, and Friday of the dosing weeks (1, 3, and 5) and on the first day (Monday) of each 10-day washout period. All blood sampling procedures and subcutaneous injections were conducted at 3 P.M. to avoid artifacts due to diurnal variations. On days where both blood sampling and injection were conducted the blood sampling procedure was conducted prior to enzyme administration.
The pharmacodynamic response in HO mice to each PEGylated htCBS C15S conjugate was assessed for each bout of dosing by quantitating plasma levels of metabolites homocysteine, cystathionine, and cysteine, which are associated with the transsulfuration pathway, at baseline and after treatment. Quantification was performed by stable-isotope-dilution liquid chromatography mass spectrometry (LC/MS) as described in Example 1. The maximal percent change of homocysteine, cystathionine, and cysteine was calculated compared to baseline values for each dose week.

[3] = Pharmacokinetics of PEGylated htCBS C15S in HO mice (plasma CBS activity); assay type: in vivo
Procedure: For 20NHS PEG-htCBS C15S, HO mice were administered SQ a dose of 5, 10 or 15 mg/kg dose or were administered IV a dose of 10 mg/kg. For 400MA-htCBS C15S, HO mice received a single dose of 10 mg/kg either SC or IV of one of the three forms: (i) a mixture of all species, where no separation of individual forms has been attempted (mix), (ii) a homoPEGylated specie (Peak 1), and (iii) a hetero/hemiPEGylated species (Peak 2).
Both male and female HO mice were used in this example, and each group contained 3 to 4 mice. Two groups of mice designated “A” and “B” were used for each route of administration to minimize the blood volume taken from any one mouse. For SC administration, blood was collected from group A at 0.5, 3, 24, and 72 hours post-injection and from group B at 1, 6, 48, and 96 hours post-injection. For IV administration, blood was collected from group A at 0.25, 1, 6, and 48 hours post-injection and from group B at 0.5, 3, 24, and 72 hours post-injection.

[4] = body surface area scaling, 70 kg human
[5] = human, 0.33 mg/kg SC 1x/week (168 h)
[6] = human, 0.33 mg/kg SC 2x/week (84 h)
[7] = human, 0.66 mg/kg SC 1x/week (168 h)
[8] = human, 0.66 mg/kg SC 2x/week (84 h)
[9] = human, 1 mg/kg SC 1x/wk (168 h)

## 20NHS PEG-htCBS C15S: htCBS C15S PEGylated with ME-200GS PEG (20 kDa linear NHS ester-activated PEG)
[1]; 0.33 mg/kg
  Initial Cmax, predicted: 11.3 mU/μL
[1]; 0.66 mg/kg
  Initial Cmax, predicted: 22.6 mU/μL
[1]; 1 mg/kg
  Initial Cmax, predicted: 34 mU/μL
[1]; [4]
  AUC/dose, human predicted value: 7474 (mU-h/mL)/(mg/kg)
  Cmax/dose, human predicted value: 34 (mU/μL)/(mg/kg)
[1]; human
  E intercept of hypothetical single dose PK curve: 43.079
[1]; [5]
  Peak @ SS, predicted: 22.6 mU/μL
  Trough @ SS, predicted: 15.4 mU/μL
[1]; [6]
  Peak @ SS, predicted: 41 mU/μL
  Trough @ SS, predicted: 34.5 mU/μL
[1]; [7]
  Peak @ SS, predicted: 45.2 mU/μL
  Trough @ SS, predicted: 30.8 mU/μL
[1]; [8]
  Peak @ SS, predicted: 82 mU/μL
  Trough @ SS, predicted: 69 mU/μL
[1]; [9]
  C1min, predicted: 22.3
  Peak @ SS, predicted: 67.9 mU/μL
  Trough @ SS, predicted: 46.2 mU/μL
[1]; human, 1 mg/kg SC 2x/wk (84 h)
  C1min, predicted: 29.0
  Peak @ SS, predicted: 123 mU/μL
  Trough @ SS, predicted: 109 mU/μL
[1]; human, 0 hours
  Extrapolated concentration: 0
[1]; human, 1 hours
  Extrapolated concentration: 0.9
[1]; human, 2 hours
  Extrapolated concentration: 2
[1]; human, 4 hours
  Extrapolated concentration: 4.3
[1]; human, 8 hours
  Extrapolated concentration: 8
[1]; human, 20 hours
  Extrapolated concentration: 20
[1]; human, 48 hours
  Extrapolated concentration: 33.3
[1]; human, 72 hours
  Extrapolated concentration: 34
[1]; human, 96 hours
  Extrapolated concentration: 28
[1]; human, 240 hours
  Extrapolated concentration: 16.7
[1]; human, 336 hours
  Extrapolated concentration: 12
[1]; human, 408 hours
  Extrapolated concentration: 8.5
[2]
  cystathionine, Percent Increase at Peak, Week 1: 676%
  cystathionine, Percent Increase at Peak, Week 3: 492%
  cystathionine, Percent Increase at Peak, Week 5: 432%
  cysteine, Percent increase at Peak, Week 1: 59%
  cysteine, Percent increase at Peak, Week 3: 61%
  cysteine, Percent increase at Peak, Week 5: 51%
  total Hcy, Percent Decrease at Trough, Week 1: 77%
  total Hcy, Percent Decrease at Trough, Week 3: 70%
  total Hcy, Percent Decrease at Trough, Week 5: 66%
[2]; listed as ME-200GS
  total Hcy, Percent Decrease at Trough, Week 1: 77%
  total Hcy, Percent Decrease at Trough, Week 3: 70%
  total Hcy, Percent Decrease at Trough, Week 5: 66%
[3]; 10 mg/kg IV
  E Half-life: 47.6 ± 14.6 h
[3]; mouse, in vivo
  average circulating time of a single enzyme molecule (MRT): 44 to 194 h
[3]; mouse, in vivo, iv, 10 mg/kg
  AUC(0-t) (obs area): 7431 ± 154 mU-hr/μL
  CL (obs area): 1346 ± 27.3 µL/h
  MRT (area): 52 ± 13 h
  cmax (obs): 371.6 ± 11.2 mU/μL
[3]; mouse, in vivo, sc
  AUC/dose: 612 (mU-h/mL)/(mg/kg)
  T1/2: 20 h
  absorption half-life: 5 to 12 h
  bioavailability in HO mice: 52-83%
  cmax/dose: 10 (mU/μL)/(mg/kg)
  tmax: 24 h
[3]; mouse, in vivo, sc, 5 mg/kg
  A Half-life: 5.3 ± 1.1 h
  AUC in mice: 3060 mU−h/mL
  CL (obs area): 1636 ± 86 µL/h
  E Half-life: 137 ± 95 h
  MRT (area): 194 ± 128 h
  cmax/dose: 10.3
[3]; mouse, in vivo, sc, 10 mg/kg
  A Half-life: 12.7 ± 0.6 h
  Bioavailability: 64.6%
  CL (obs area): 2113 ± 280 µL/h
  E Half-life: 17.5 ± 1.27 h
  MRT (area): 44.8 ± 1.7 h
  cmax (obs): 89.9 ± 10.2 mU/μL
  cmax/dose: 9.0
[3]; mouse, in vivo, sc, 15 mg/kg
  A Half-life: 11.9 ± 1.2 h
  Bioavailability: 51.6%
  CL (obs area): 2609 ± 72 µL/h
  E Half-life: 22.0 ± 1.7 h
  MRT (area): 49.0 ± 1.4 h
  cmax (obs): 104.2 ± 11.3 mU/μL
  cmax/dose: 6.9
  half-life determinations in the SC dose groups: 17.5 to 137 h
